Experimental data published in patent US20210388107A1 (BYONDIS B V, published 2021).
Residue numbers refer to the chain shown, from its start.

T1: cynomolgus monkey SIRPα expressed on ExpiCHO-S cells (cynomolgus monkey, UniProt A0A2K5VYQ9 31-507)
T1 construct: whole, on cells; also called cySIRPα; ExpiCHO-S (cySIRPα)
T1 sequence: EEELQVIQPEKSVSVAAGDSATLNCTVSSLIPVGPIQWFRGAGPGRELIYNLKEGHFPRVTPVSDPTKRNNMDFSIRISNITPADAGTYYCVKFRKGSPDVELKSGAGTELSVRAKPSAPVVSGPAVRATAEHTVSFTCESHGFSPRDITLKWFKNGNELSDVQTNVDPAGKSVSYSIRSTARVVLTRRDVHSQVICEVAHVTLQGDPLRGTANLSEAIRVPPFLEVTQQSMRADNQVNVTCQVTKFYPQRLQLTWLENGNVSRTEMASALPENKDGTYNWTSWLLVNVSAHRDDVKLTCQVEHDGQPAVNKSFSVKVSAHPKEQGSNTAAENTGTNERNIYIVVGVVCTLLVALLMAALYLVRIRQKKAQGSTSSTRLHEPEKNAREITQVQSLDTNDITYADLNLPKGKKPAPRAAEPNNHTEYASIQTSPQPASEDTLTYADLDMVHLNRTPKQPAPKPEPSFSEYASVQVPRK

B1: humanized anti-SIRPα antibody 7 (antibody, human IgG1, kappa, L234A L235A, V domains shown)
VH: RQLVESGGGLVQPGGSLRLSCAASGFSLSSHGISWVRQAPGKGLEWVGTIGTGVITYYASWAKGRFTGSKTSSTAYLQMTSLRAEDTAVYYCARGSAWNDPFDYWGQGTLVTVSS
VL: DIVMTQSPSSLSASVGDRVTITCQASQSVYGNNDLAWYQQKPGQAPKLLIYLASTLATGVPSRFSGSGSGTDFTLTISSLQPEDFATYYCLGGGDDEADNTFGQGTKVEIKR
notes: human IgG1 LALA, kappa; also called mAb 7
B2: humanized anti-SIRPα antibody 11 (antibody, human IgG1, kappa, L234A L235A, V domains shown)
VH: B1 VH
VL: B1 VL with V3E, L11V, I21L, T101V, Q104G
notes: human IgG1 LALA, kappa; also called mAb 11
B3: humanized anti-SIRPα antibody 9 (antibody, human IgG1, kappa, L234A L235A, V domains shown)
VH: B1 VH with A84S
VL: B1 VL
notes: human IgG1 LALA, kappa; also called mAb 9
B4: humanized anti-SIRPα antibody 5 (antibody, human IgG1, kappa, L234A L235A, V domains shown)
VH: B1 VH with W46Y, V47I
VL: B1 VL with V3E, L11V, I21L, T101V, Q104G
notes: human IgG1 LALA, kappa; also called mAb 5
B5: humanized anti-SIRPα antibody 1 (antibody, human IgG1, kappa, L234A L235A)
heavy: not shown
light: DIQMTQSPSSLSASVGDRVTITCRASQSINSYLAWYQQKPGKAPKLLIYSASFLYSGVPSRFSGSGSGTDFTLTISSLQPEDFATYYCQSWHYISRSYTFGQGTKVEIKRTVAAPSVFIFPPSDEQLKSGTASVVCLLNNFYPREAKVQWKVDNALQSGNSQESVTEQDSKDSTYSLSSTLTLSKADYEKHKVYACEVTHQGLSSPVTKSFNRGEC
notes: human IgG1 LALA, kappa; also called mAb 1
B6: humanized anti-SIRPα antibody 13 (antibody, human IgG1, kappa, L234A L235A)
heavy: not shown
light: B5 light
notes: human IgG1 LALA, kappa; also called mAb 13
B7: humanized anti-SIRPα antibody 3 (antibody, human IgG1, kappa, L234A L235A)
heavy: not shown
light: B5 light
notes: human IgG1 LALA, kappa; also called mAb 3
B8: humanized anti-SIRPα antibody 2 (antibody, human IgG1, kappa, L234A L235A)
heavy: not shown
light: B5 light
notes: human IgG1 LALA, kappa; also called mAb 2
B9: humanized anti-SIRPα antibody 4 (antibody, human IgG1, kappa, L234A L235A)
heavy: not shown
light: B5 light
notes: human IgG1 LALA, kappa; also called mAb 4
B10: humanized anti-SIRPα antibody 12 (antibody, human IgG1, kappa, L234A L235A)
heavy: not shown
light: B5 light
notes: human IgG1 LALA, kappa; also called mAb 12

How the values were obtained:
[1] = molecular target: T2, human SIRPαBIT expressed on cells (human, UniProt P78324 31-504); assay: flow cytometry, U937 cells
T2 construct: endogenous on U937 cells or transiently expressed on ExpiCHO-S cells; in the SHP-1 assay a ProLink-tagged form on Jurkat cells; also called huSIRPαBIT; U937 cells (huSIRPαBIT)
Description: (§1) After an incubation time of 30 min at 4° C., the cells were washed three times with ice-cold FACS buffer and 50 μl/well secondary mAb (for human antibodies, AffiniPure F(ab′)₂ fragment Goat-anti-human IgG-APC, 1:6,000 dilution, Jackson Immuno Research was added and for mouse antibodies, AffiniPure Fab fragment Goat Anti-Mouse IgG (H+L)-Alexa Fluor 488, 1:1,000 dilution, Jackson Immuno Research was added). After 30 min at 4° C., cells were washed twice and resuspended in 150 μl FACS buffer. Fluorescence intensities were determined by flow cytometry (BD FACSVerse, Franklin Lakes, N.J.) and indicated as the median fluorescence intensity (MFI-Median) for U937 cells and the mean fluorescence intensity (MFI-Mean) for ExpiCHO-S cells. Curves were fitted by nonlinear regression using the sigmoidal dose-response equation with variable slope (four parameters) in GraphPad Prism (version 7.02 for Windows, GraphPad, San Diego, Calif.). EC₅₀ values were calculated as the concentration in μg/ml that gives a response half way between bottom and top of the curve, when using a 4-parameter logistic fit.

[2] = molecular target: T3, human SIRPα1 extracellular domain 1-370, Avi-FXa-Fc tag (human, biotinylated); assay: SPR, captured biotinylated antigen
T3 construct: also called huSIRPα1; v2
T3 sequence (chain, as listed by the source limits assumed): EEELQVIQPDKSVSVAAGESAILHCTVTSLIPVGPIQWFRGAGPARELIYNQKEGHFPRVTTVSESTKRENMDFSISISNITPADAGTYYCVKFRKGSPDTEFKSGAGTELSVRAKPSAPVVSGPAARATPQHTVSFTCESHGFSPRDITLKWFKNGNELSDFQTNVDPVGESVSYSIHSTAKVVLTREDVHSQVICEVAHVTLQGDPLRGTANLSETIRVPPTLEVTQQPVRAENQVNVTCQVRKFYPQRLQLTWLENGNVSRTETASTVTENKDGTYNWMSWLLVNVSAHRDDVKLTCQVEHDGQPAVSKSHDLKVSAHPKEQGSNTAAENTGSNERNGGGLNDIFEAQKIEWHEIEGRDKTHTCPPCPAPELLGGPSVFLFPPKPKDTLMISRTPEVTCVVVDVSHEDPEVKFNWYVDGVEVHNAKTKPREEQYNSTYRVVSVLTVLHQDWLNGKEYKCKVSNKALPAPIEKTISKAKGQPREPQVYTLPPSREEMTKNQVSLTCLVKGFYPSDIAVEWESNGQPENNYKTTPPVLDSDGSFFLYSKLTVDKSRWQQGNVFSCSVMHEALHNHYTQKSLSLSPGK
Description: (§2) Surface Plasmon Resonance (SPR) assay: Affinity analysis was performed by single cycle kinetics analysis on a Surface Plasmon Resonance apparatus (BiaCore™ T200 system, GE Life Sciences) at 25° C. […] For each step an association time of 150 sec was used, followed by a dissociation time of 600 sec after the highest concentration only, all at a flow rate of 30 μl/min. Regeneration was performed with 6 M guanidine-HCl, 0.25 M NaOH solution (120 sec with flow rate of 30 μl/min). […] Sensorgrams were fitted with a 1:1 Langmuir model for all tested anti-SIRP antibodies. The kinetic parameters (association rate [kₐ], dissociation rate [kd] and binding constant, also referred to as equilibrium dissociation constant or binding affinity [KD]) were calculated using BiaCore™ T200 evaluation software (v3.1).

[3] = molecular target: T4, human SIRPαBIT, extracellular domain 1-370, Avi-FXa-Fc tag (human, biotinylated); assay: SPR, captured biotinylated antigen
T4 construct: also called huSIRPαBIT; v1
T4 sequence (chain, as listed by the source limits assumed): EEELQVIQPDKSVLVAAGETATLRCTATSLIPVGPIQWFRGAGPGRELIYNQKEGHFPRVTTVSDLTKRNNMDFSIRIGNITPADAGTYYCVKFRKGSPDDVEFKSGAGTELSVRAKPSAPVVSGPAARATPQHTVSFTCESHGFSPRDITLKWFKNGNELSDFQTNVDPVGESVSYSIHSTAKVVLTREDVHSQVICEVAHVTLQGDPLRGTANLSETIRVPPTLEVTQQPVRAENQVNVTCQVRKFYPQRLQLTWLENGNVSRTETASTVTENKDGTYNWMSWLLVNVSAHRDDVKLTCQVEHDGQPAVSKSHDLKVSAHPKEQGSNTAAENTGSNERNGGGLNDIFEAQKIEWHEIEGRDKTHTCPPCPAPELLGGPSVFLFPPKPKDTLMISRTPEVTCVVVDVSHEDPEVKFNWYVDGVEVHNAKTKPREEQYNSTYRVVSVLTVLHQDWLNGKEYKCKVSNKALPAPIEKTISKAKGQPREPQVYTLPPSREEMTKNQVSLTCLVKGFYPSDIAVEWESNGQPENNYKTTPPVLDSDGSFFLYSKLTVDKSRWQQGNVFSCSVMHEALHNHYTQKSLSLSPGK
Description: as §2

[4] = molecular target: T5, human SIRPγ, extracellular domain, Avi-FXa-Fc tag (human, biotinylated); assay: SPR, captured biotinylated antigen
T5 construct: also called huSIRPγ
T5 sequence (chain, as listed by the source limits assumed): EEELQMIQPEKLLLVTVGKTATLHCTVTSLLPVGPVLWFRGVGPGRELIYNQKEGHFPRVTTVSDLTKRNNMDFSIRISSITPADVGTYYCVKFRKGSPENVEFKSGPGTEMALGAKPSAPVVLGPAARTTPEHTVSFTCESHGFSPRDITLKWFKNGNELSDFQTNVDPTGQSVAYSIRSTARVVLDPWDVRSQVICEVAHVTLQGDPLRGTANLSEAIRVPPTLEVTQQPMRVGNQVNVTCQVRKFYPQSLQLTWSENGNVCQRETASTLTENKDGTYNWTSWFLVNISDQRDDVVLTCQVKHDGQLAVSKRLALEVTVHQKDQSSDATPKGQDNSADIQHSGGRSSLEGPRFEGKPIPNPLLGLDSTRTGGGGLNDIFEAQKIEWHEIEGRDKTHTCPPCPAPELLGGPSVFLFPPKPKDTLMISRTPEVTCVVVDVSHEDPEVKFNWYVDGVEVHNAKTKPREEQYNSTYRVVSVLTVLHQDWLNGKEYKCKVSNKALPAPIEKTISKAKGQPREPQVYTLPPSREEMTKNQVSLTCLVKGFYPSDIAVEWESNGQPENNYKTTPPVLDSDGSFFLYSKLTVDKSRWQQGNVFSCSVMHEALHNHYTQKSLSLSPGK
Description: as §2

[5] = molecular target: T6, human SIRPβ1v1, extracellular domain, Avi-FXa-Fc tag (human, biotinylated); assay: SPR, captured biotinylated antigen
T6 construct: also called huSIRPβ1v1
T6 sequence (chain, as listed by the source limits assumed): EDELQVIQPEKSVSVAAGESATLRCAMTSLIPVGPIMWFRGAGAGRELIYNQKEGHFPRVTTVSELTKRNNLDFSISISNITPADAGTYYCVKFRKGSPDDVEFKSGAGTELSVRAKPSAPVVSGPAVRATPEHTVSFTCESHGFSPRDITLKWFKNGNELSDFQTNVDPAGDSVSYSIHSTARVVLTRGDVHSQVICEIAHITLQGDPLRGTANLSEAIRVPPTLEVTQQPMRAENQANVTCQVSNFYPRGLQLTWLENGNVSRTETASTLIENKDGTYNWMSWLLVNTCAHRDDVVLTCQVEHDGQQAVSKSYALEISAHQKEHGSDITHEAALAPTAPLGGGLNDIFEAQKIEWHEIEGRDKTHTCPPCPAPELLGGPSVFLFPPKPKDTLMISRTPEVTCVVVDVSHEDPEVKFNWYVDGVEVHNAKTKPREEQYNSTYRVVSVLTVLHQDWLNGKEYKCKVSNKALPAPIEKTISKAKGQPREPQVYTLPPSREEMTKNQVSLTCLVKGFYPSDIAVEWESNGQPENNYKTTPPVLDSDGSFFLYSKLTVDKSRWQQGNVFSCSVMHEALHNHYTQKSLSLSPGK
Description: as §2

[6] = molecular target: T7, human SIRPγ on human CD3+ T-cells (human, UniProt Q9P1W8 29-387); assay: flow cytometry on CD3+ T-cells in PBMC of two healthy individuals, % of positive cells
T7 construct: whole, on cells
T7 sequence (Q9P1W8 29-387): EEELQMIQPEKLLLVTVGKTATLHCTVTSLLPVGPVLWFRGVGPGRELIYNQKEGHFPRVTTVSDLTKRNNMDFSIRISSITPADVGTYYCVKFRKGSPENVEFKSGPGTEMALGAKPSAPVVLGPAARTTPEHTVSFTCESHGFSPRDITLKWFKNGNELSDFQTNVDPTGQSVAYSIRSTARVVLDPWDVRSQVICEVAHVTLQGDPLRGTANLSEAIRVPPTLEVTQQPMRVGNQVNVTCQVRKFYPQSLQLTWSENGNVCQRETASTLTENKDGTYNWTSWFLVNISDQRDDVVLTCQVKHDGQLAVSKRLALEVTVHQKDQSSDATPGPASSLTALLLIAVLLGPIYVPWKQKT
Description: (§3) Flow Cytometry assay: Peripheral mononuclear cells (PBMC) were isolated from fresh blood of healthy individuals using Percoll gradient. […] Cells (200,000 cells/well in a 96-well plate) were subsequently incubated in the presence of tested antibodies or control conditions with secondary antibodies only (secondary goat anti-human IgG Alexa 633 F(ab′)₂ fragment, dilution 1:1000, Jackson Immuno Research, and secondary goat anti-mouse IgG Alexa 633 F(ab′)₂ fragment, dilution 1:250, Invitrogen) for 30 min on ice. After that, cells were washed with FACS buffer and resuspended in a mixture of anti-human CD3 FITC antibody (dilution 1:100, Invitrogen) with respective secondary antibody (either anti-human or anti-mouse) and incubated for 30 min in the dark on ice. Afterwards the cells were washed with FACS buffer and resuspended in 150 μl of FACS buffer and fluorescence intensities were determined by flow cytometry (LSRII HTS or LSRFortessa, BD Biosciences, CA, USA) and indicated as the median fluorescence intensity (MFI-Median) and percentage of positive cells.

[7] = molecular target: T2, human SIRPαBIT expressed on cells; assay: flow cytometry, ExpiCHO-S cells
Description: as §1

[8] = molecular target: T8, human SIRPα1 expressed on cells (human, UniProt P78324 31-504); assay: flow cytometry, ExpiCHO-S cells
T8 construct: whole, on cells; also called huSIRPα1; ExpiCHO-S (huSIRPα1)
Description: as §1

[9] = molecular target: T7, human SIRPγ on human CD3+ T-cells; assay: flow cytometry on CD3+ T-cells in PBMC of two healthy individuals, MFI
Description: as §3

[10] = molecular target: T9, human SIRPβ1v2, extracellular domain, Avi-FXa-Fc tag (human, biotinylated); assay: SPR, captured biotinylated antigen
T9 construct: also called huSIRPβ1v2
T9 sequence (chain, as listed by the source limits assumed): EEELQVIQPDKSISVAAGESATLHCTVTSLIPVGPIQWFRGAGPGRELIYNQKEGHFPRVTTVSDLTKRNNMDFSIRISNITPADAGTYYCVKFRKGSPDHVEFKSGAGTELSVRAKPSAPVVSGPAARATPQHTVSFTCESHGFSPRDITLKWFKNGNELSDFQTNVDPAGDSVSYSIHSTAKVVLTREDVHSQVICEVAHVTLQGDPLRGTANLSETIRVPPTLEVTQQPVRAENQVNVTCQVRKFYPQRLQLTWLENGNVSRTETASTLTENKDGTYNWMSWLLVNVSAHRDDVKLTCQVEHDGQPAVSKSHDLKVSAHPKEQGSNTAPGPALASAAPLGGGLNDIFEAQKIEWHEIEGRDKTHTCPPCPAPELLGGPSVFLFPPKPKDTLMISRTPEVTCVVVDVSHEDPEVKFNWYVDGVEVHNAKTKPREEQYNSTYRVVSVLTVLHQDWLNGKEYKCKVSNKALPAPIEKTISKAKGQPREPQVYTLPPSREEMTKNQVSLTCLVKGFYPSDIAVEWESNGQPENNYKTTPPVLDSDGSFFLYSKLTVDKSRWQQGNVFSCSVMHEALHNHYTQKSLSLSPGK
Description: as §2

[11] = molecular target: T10, cynomolgus monkey SIRPα, extracellular domain, Avi-FXa-Fc tag (cynomolgus monkey, biotinylated); assay: SPR, captured biotinylated antigen; sub-optimal fit
T10 construct: also called cySIRPα
Description: as §2

[12] = molecular target: T1, cynomolgus monkey SIRPα expressed on …; assay: flow cytometry, ExpiCHO-S cells
Description: as §1

[13] = molecular target: T10, cynomolgus monkey SIRPα, extracellular …; assay: SPR, captured biotinylated antigen
Description: as §2

Row | Binder | EC50 [1] [µg/mL] | Kd [2] [nM] | Kd [3] [nM] | binding result [4] | Kd [5] [nM] | binding result [6] | EC50 [7] [µg/mL] | EC50 [8] [µg/mL] | binding result [9] | Kd [10] [nM] | Kd [11] [nM] | EC50 [12] [µg/mL] | Kd [13] [nM]
1 | B1 | 3.55 | 0.0171 | 0.378 | no binding (tested: below 10 RU cut-off; up to 1600 ng/ml) | 1.65 | no binding | 0.2 | 0.2 | – | – | – | – | –
2 | B2 | 3.73 | 0.0349 | 0.212 | no binding (tested: below 10 RU cut-off; up to 1600 ng/ml) | 2.01 | – | 0.08 | 0.11 | no binding | – | – | – | –
3 | B3 | 2.78 | 0.0191 | 0.365 | no binding (tested: below 10 RU cut-off; up to 1600 ng/ml) | 1.44 | – | 0.11 | 0.19 | no binding | – | – | – | –
4 | B4 | 1.6 | < 0.01 | 0.142 | no binding (tested: below 10 RU cut-off; up to 1600 ng/ml) | 0.593 | no binding | 0.12 | 0.22 | – | 2.97 | 76.2 | 1.91 | –
5 | B5 | 0.09 | 1.49 | < 0.01 | no binding (tested: below 10 RU cut-off; up to 1600 ng/ml) | – | no binding | 0.3 | 0.28 | – | 2.42 | – | 0.12 | 1.87
6 | B6 | 0.08 | 1.41 | < 0.01 | no binding (tested: below 10 RU cut-off; up to 1600 ng/ml) | – | – | 0.28 | 0.27 | no binding | 2.78 | – | 0.11 | 2.05
7 | B7 | 0.12 | 0.908 | < 0.01 | no binding (tested: below 10 RU cut-off; up to 1600 ng/ml) | – | no binding | 0.28 | 0.4 | – | 1.92 | – | 0.15 | 1.66
8 | B8 | 0.1 | 1.34 | < 0.01 | no binding (tested: below 10 RU cut-off; up to 1600 ng/ml) | – | no binding | 0.31 | 0.32 | – | 2.54 | – | 0.12 | 2.27
9 | B9 | 0.1 | 1.38 | < 0.01 | no binding (tested: below 10 RU cut-off; up to 1600 ng/ml) | – | no binding | 0.36 | 0.38 | – | 2.34 | – | 0.14 | 1.94
10 | B10 | 0.08 | 1.38 | < 0.01 | no binding (tested: below 10 RU cut-off; up to 1600 ng/ml) | – | – | 0.26 | 0.27 | no binding | 1.94 | – | 0.23 | 1.53
